Here are results for 20 molecules from patent US20240270826A1 (NATIONAL RESEARCH COUNCIL OF CANADA, published 2024).

First the molecules themselves.
B1: NRCoV2-20 VHH-Fc (Fc fusion)
chain: EVQLQQSGGGLVQPGGSLRLSCAASGRTFSNYVVGWFRQAPQAPGKDHEFVAVISGSDTETYYADSVKGRFTISRDNAKNTVYLQMNSLKPEDTAVYYCAADRGMSYYYTRATEYYYWGQGTQVTVSS
notes: bivalent VHH-Fc
B2: NRCoV2-SR02 VHH-Fc (Fc fusion)
chain: EVQLVDSGGGLVQAGGSLRLSCTASEFTLNYYSIGWFRQSPGKEREGVSCIRYSGGGIDYADSVKGRFTISRDNAKNTVYLTMNSLKPEDTAVYYCAADRLYSRACPTAGGRNYWGQGTQVTVSS
notes: bivalent VHH-Fc
B3: NRCoV2-SR13 VHH-Fc (Fc fusion)
chain: EVQLVESGGGLVTTGGSLRLSCATSGSRFGSKHMAWYRQAPGKQRDLVAAISSGGSTHYGSSVKGRFTISRDNAKSTVYLQMNSLNPEDTAVFYCNMGGWDYRSNTYIPGSRSDYWGQGTQVTVSS
notes: bivalent VHH-Fc
B4: NRCoV2-07 VHH-Fc (Fc fusion)
chain: QVQLVQSGGGLVQPGGSLRLSCAASGVTLDYYAIGWFRQAPGKEREAVSCISSNGRRNHYVASVRGRFTISRDNAKSTVYLQMNSLKPEDTAVYYCAAVQDVHGDNYYCTSPNEYNVWGQGTQVTVSS
notes: bivalent VHH-Fc
B5: NRCoV2-SR01 VHH-Fc (Fc fusion)
chain: EVQLVQSGGGSVQAGGSLRLSCVASGFTFDNYAIGWFRQAPGKEREGVSCISGNGGVTIYADSVKGRFTISRDNAKNLVYLQMNSLKPEDTAVYYCAATGIRSTWSVYGCSRLAGPYDYWGQGTQVTVSS
notes: bivalent VHH-Fc
B6: NRCoV2-1d VHH-Fc (Fc fusion)
chain: EVQLVESGGGSVQPGGSLRLSCAASGSTLDYYAIGWFRQAPGKEREWVSSVSSSDGNTLYADSVKGRFTISRDNAKNTVYLQMNSLKAEDTAVYVCAADYSMRPFAVGRWHRDYEYWGQGTQVTVSS
notes: bivalent VHH-Fc
B7: NRCoV2-18 VHH-Fc (Fc fusion)
chain: EVQLVESGGGLVQAGGSLRLSCVASGITISGYNMAWWRQTRGKQTERVAFINSGGSTTYSDSVKGRFTISRDNGKNTAYLQMNSLNAEDTADYFCSLHTSHDYWGQGTQVTVSS
notes: bivalent VHH-Fc
B8: NRCoV2-MRed04 VHH-Fc (Fc fusion)
chain: EVQLVESGGGLVQPGRSLRLSCAASGNSFSISTMGWFRQAPGKERELVASIWSDTTTSYADSVKGRFTISTDNTRTKVYLQMSSLNPEDTAVYYCAADRGFVVRGQYDYWGQGTQVTVSS
notes: bivalent VHH-Fc
B9: NRCoV2-11 VHH-Fc (Fc fusion)
chain: EVQLVSSGGGLVQPGGSLRLSCAASGSSLDSYSVSWFRQAPGKEREWISFISRYYSSTYYTDSVKGRFTTSRDGDQKTVHLQMNSLKPEDTAVYYCAARSRDFSSPFSATDTYTSWGQGTQVTVSS
notes: bivalent VHH-Fc
B10: NRCoV2-10 VHH (VHH)
VHH: QLQLQESGGGLVQPGGSLTLSCAASGNTFSRSNMHWYRQAPGAQREWVAAISSRGISTYAYSAKGRFTISRDNAKNTVSLQMNSLKPEDTAVYYCYAADDLGDYWGQGTQVTVSS
B11: NRCoV2-14 VHH (VHH)
VHH: EVQLVSSGGGLVQAGGSLRLSCEASGTTFSHYAVGWYRQAPGKQREWVASISVFGSTTYGGSVAGRFTISRDNDKNTVDLQMNSLKPEDTAVYYCHAVNADIGGDYWGQGTQVTVSS
B12: NRCoV2-15 VHH (VHH)
VHH: EVQLVSSGGGLVEAGGSLRLSCIASGSTSGRNTMGWFRQAPGKQREWVAIVSTSGATNYAGSVKGRFTLSRDNAKNAVYLQMNNLKPEDTAVYYCYAAYGGGGDYWGQGTQVTVSS
B13: NRCoV2-07 VHH (VHH)
VHH: B4 chain
B14: NRCoV2-10 VHH (VHH)
VHH: B10 VHH
B15: NRCoV2-04 VHH (VHH)
VHH: AVQLVDSGGGLVQPGGSLRLSCAASGSPFSNVVMAWYRQAPGKQRERVAFISGGGIADYIMSVKGRFTISRDNAKNTVYLQMNSLKPEDTAVYYCWSSYESTWGQGTQVTVSS
B16: NRCoV2-03 VHH (VHH)
VHH: EVQLVSSGGGLVQAGGSLRLSCTASGITFSYYAMGWYRQAPGQPRELVASMSNMDSTIYADSVKGRFTISRDNAKTTIYLQMNNLKPEDTAVYFCNIYGPTYSTRRNEYWGQGTQVTVSS
B17: NRCoV2-06 VHH (VHH)
VHH: EVQLVQSGGGLVQAGESLRLSCAASVSTFSSYAMGWYRQAPGKQRELVASIGFVGATYYIDSVKGRFTISRDNAKKTAYLQMNDLKPDDTAVYYCNARHYGGSEYWGQGTQVTVSS
B18: NRCoV2-05 VHH (VHH)
VHH: EVKLVQSGGGLVQPGGSLRLSCAASGFIFSNYAMNWVRQAPGKGLEWVSGINSGGGDTRYADSVKGRFTVSRDNAKNTLYLQMNSLKPEDTGVYYCSKGPVSSYYGSGYDYRGQGTQVTVSS
B19: NRCoV2-1d VHH (VHH)
VHH: B6 chain
B20: NRCoV2-11 VHH (VHH)
VHH: B9 chain

The first assay addresses T1, SARS-CoV-2 S2 (aa686-1208) (Wuhan) (SARS-CoV-2 Wuhan, UniProt P0DTC2 686-1208).
T1 construct: NRC; FLAG, 6xHis tags
Kind of assay: ELISA.
In the case of B1, the binding result is listed as “no binding (tested: 13 nM)”.
On the same count and under the same terms, for B2 the value was “no binding (tested: 13 nM)”.
Same read-out and setting: for B3 the value was “no binding (tested: 13 nM)”; for B4, “no binding (tested: 13 nM)”; for B5, “no binding (tested: 13 nM)”.
Still for that read-out and setting: for B6 the value was “no binding (tested: 13 nM)”.
As for B7, the binding result was “no binding (tested: 13 nM)”.
Same read-out and setting: for B8 the value was “no binding (tested: 13 nM)”; for B9, “no binding (tested: 13 nM)”.

In the next assay the target is SARS-CoV-2 S1-NTD (aa16-305) (SARS-CoV-2 Wuhan, UniProt P0DTC2 16-305). Kind of assay: ELISA.
For B1, the binding result is listed as “no binding (tested: 13 nM)”.
Same read-out and setting: for B4 the value was “no binding (tested: 13 nM)”; for B6, “no binding (tested: 13 nM)”; for B7, “no binding (tested: 13 nM)”.
Take B8: the binding result is given as “no binding (tested: 13 nM)”.
Still for that read-out and setting: the value for B9 was “no binding (tested: 13 nM)”.

A further assay has as its target T2, SARS-CoV-2 spike trimer S (Wuhan, SmT1) (SARS-CoV-2 Wuhan).
T2 construct: extracellular domain
Kind of assay: SPR, antigen on chip.
B10 came in with a Kd of 0.192 nM, a koff of 9.27e-05 s⁻¹ and a kon of 483000 M⁻¹ s⁻¹.
B11 gave a Kd of 3.1 nM, a koff of 0.00164 s⁻¹ and a kon of 528000 M⁻¹ s⁻¹.
The like results for B12 were, in that order, 0.313 nM, 0.000221 s⁻¹ and 706000 M⁻¹ s⁻¹.
In the case of B13, the Kd is 1.15 nM, the koff was found to be 0.000403 s⁻¹ and the kon stood at 350000 M⁻¹ s⁻¹.

In another assay the target is T3, SARS-CoV-2 S1 (aa16-685) (Wuhan) (SARS-CoV-2 Wuhan, UniProt P0DTC2 16-685).
T3 construct: NRC; FLAG, 6xHis tags
Kind of assay: SPR, antigen on chip.
In turn, B10 showed a Kd of 0.213 nM, a koff of 9.54e-05 s⁻¹ and a kon of 448000 M⁻¹ s⁻¹.
For B11, in that order: 3.49 nM, 0.00112 s⁻¹ and 319000 M⁻¹ s⁻¹.
Consider B12, for which the Kd amounted to 0.333 nM, the koff was 0.000225 s⁻¹ and the kon was found to be 675000 M⁻¹ s⁻¹.
Consider B13, for which the Kd stood at 1.02 nM, the koff worked out at 0.000308 s⁻¹ and the kon is 301000 M⁻¹ s⁻¹.

For a further assay, the target named is T1, SARS-CoV-2 S2 (aa686-1208) (Wuhan). Kind of assay: SPR, antigen on chip.
B10: the binding result is on record as “no binding”.
The same measure, in the same setting: the value for B11 was “no binding”.
The same measure, in the same setting: the value for B12 was “no binding”; that for B13 was “no binding”.

Another assay addresses SARS-CoV-2 S1-RBD fused to human Fc (S1-RBD-Fc) (SARS-CoV-2 Wuhan; human). Kind of assay: SPR, antigen on chip.
The molecule B10 showed a Kd of 0.266 nM, a koff of 9.32e-05 s⁻¹ and a kon of 351000 M⁻¹ s⁻¹.
For B11, in that order: 3.61 nM, 0.000944 s⁻¹ and 261000 M⁻¹ s⁻¹.
Regarding B12, the Kd is 0.342 nM, the koff turned out to be 0.000233 s⁻¹ and the on-rate constant (kon) is 682000 M⁻¹ s⁻¹.
For B13, in that order: 0.894 nM, 0.000284 s⁻¹ and 318000 M⁻¹ s⁻¹.

Another assay has as its target T4, SARS-CoV-2 S on CHO-S cells (SARS-CoV-2, UniProt P0DTC2 14-1273).
T4 construct: whole, on cells
Kind of assay: flow cytometry, CHO-S cells.
Molecule B1 came in with a Bmax of 12100 and an EC50 of 0.7 nM.
The like results for B2 were, in that order, 14400 and 1.2 nM.
The like results for B3 were, in that order, 17800 and 7 nM.
For B4, in that order: 10600 and 1.1 nM.
On to B5, for which the Bmax was 15400 and it took 6.6 nM to reach a half-maximal effect (EC50).
The like results for B6 were, in that order, 13800 and 1.1 nM.
Regarding B7, the Bmax was 18300 and the EC50 is 0.9 nM.
For B8, in that order: 14900 and 4.2 nM.
For B9, in that order: 18200 and 4.3 nM.

The next assay concerns the target Human SARS-CoV-2_Wuhan S (SmT1) (SARS-CoV-2 (Wuhan), UniProt P0DTC2 14-1208). Kind of assay: tandem SPR, immobilized S, orientation 1: VHH alone.
In the case of B14, the “End 1st inj (RU)” value amounted to 9.6 RU.
Regarding B15, the “End 1st inj (RU)” value was found to be 41.4 RU.
Still for that read-out and setting: for B16 the value was 18.1 RU; for B17, 38.5 RU.
As for B18, the “End 1st inj (RU)” value came to 36.9 RU.
Still for that read-out and setting: the value for B19 was 26.3 RU; that for B20 was 21.8 RU.
